Measurements from patent US20240026407A1, “MODIFICATION OF SAPONINS” (GLAXOSMITHKLINE BIOLOGICALS SA, priority 2020, published 2024).

How the values were obtained:
Assay type in all cases: biochemical, Quillaja saponaria
[1] = Experiment 6-1: screening of rhamnosidases for derhamnosylation of saponins in treated bark extract (2%), desglucosyl-QS-17 2134 to QS-21 1988 (PAR %); details: TBE 2%, pH 7.5, 30 degC, 18 h; TIC peak area ratio percent, LCMS/MS; negative controls 2.719, 2.158
[2] = Experiment 6-1: specificity of rhamnosidases towards other rhamnose residues (C3 saccharide rhamnose, C28 saccharide rhamnose); details: TBE 2%, pH 7.5, 30 degC, 18 h; LCMS/MS; negative controls 0.18, 0.17
[3] = Experiment 6-1: screening of rhamnosidases for derhamnosylation of saponins in treated bark extract (2%), QS-17 2296 to QS-18 2150 (PAR %); details: TBE 2%, pH 7.5, 30 degC, 18 h; TIC peak area ratio percent of rhamnosylated starting saponin to derhamnosylated product, LCMS/MS; negative controls 4.876, 5.225
[4] = Experiment 6-1: screening of rhamnosidases for derhamnosylation of saponins in treated bark extract (2%), QS-17 2310 to QS-18 2164 (PAR %); details: TBE 2%, pH 7.5, 30 degC, 18 h; TIC peak area ratio percent, LCMS/MS; negative controls 3.061, 2.429

B1: 1002 (protein, listed as Flavobacterium johnsoniae)
chain: MKNFKNILLGLSFLITFISNGQILPVRLTTEMAENPLAVIENQPKFSWQLISKESDVSQVAYLILVASSEEKLNNDDGDIWNSGRVNTDKNLHIVYSGKPLKSETKYFWKVKVWNQLGKISKWSKTASFRTASLESDLNPIWIGAITKADSHLPEGRNYHTATFNREKKMSFINASDSLARRSIMLRKPFEVEKAVKEAVVYISGLGHYELTINGKKVGNSQFAPLWTDYDKTVNYNVYELSAKEFQKGDNVIGVLLGNGMYNTLAERYTKFFVSFGPPTLFFKMKIKYNDGSEEIIKSDRTWKYSKSPITYNSIFGGEDYNANLEQKDWNRKGFKDRDWKKVVIQEAPKGILRPQTAPPVTIQKQYEVKTVKELKPNFYVFDMGQNLSGFPTIKVKGKRGQTIRVWVAEGLNEEGTIAQGRSGKPYYYDYTLKGKDVEEWTPKFSFYGYQYVQIENINYKEDKNKEFPTLVDLKSNFIYNSAGEAGSFACSNEIFNKTHELINNSIKSNFQSVFTDCPQREKLGWLEEIQLNGPSLMFNYNLQTFLPATMQNISDSQRENGLIPTIVPEYVIFGGDFTDSPEWGVTGVILPWMYYEYYGDASLLEKYFPVMKNYVDYLGTKATNHIVSHGLGDWYDYGTHPAGYSKNSPIALSATSHYYYGAFLVAKASKLLGKTEDFEKYNTLASEIKTAFNAAFFNEETKQYGTSSQFSNAVPIFMDIVEPQYKEAVMQNLLADIKEKGDRLTTGDVGNRYLFQTLARNGENETMYRMHNHYDAPGYGFQIKFGLTTLTEQWDPRKGNSWNHFMLGQIEEWFYQSLAGIMSDPEKPGFKHFFIQPEVVGDMTFAKADYQSVYGKIASSWEKKDGKFILTVQIPVNTTATIKLPVAKNSEIKMDGKRVRAGFDEKAQKPVLELGSGIYTIECTI
- Peak75 (PAR %) [1]: 2.538%
- ratio PP/QS-21 [2]: 0.16
- QS-17 (PAR %) [3]: 4.922%
- Peak57 (PAR %) [4]: 2.843%

B2: 1023 (protein)
chain: MNLFLSIFLFCSPLFLLGQSELNYPELLYPPQAIKANWVSHPDIQGGEDRIVLFRNEWMVDDPSEAFIINISADNHYFLYVNGNLVTHGPQLSDIRHWKYETIDLKTYLKTGKNLIAIKVVNYGKRRFYGMQSIFTSLMVNGATENAKVLNTSGTDDGWKCSIDDSYRALEVNWRGGGPKSIVGGFYANNPTDFVDKNHYPTDWEQPDFDDSDWVDTQFFEGASSMGGSMAYLLEPRNLPLLTWEKEGIGHTVRTSDIDVSEFPVSGKTVVPEHKKIRFLIDQKYVTNGFPELIFSKGKNAHIKIKYAENLFGPKNTKGDRNIIKGKELLGYYDHVVSNGKERQKFTPNWMRTFRFVEFEIETKGQELVLDSFSNYRSRTHIPSIARFSSNNETYNAIFDICKRTVDICTQDYFLSDAYYETMQYVGDTKIHALLWQAMSGNLAHTKNAIEQFHRSRDADGNILGAYPLRSTFIYPTYSLVWVDMVYDYYQLTNDTDFINTYKDGIIHTLAGFEKNMNELNLVNETQYRYFVDWYTGPNNGGGTATKNNGKNSAVVSLHYVHALQNAARLFKAIGDKHTADTYLDRATAIKSSVYKLCFDPNKNIFAERPDKTVYDQHTNIMAVLTDAIAESEQKALLSNILNDPKLLQATYYYRYYLFEAIKKVGAPELFDLAQRPWQAMIDNHMTTTLERFESDKKPTRSEVHPWSASPAYFYFNYLAGIKSVKNDFQEIEIAPVFGILEDMEGLLPTSKGNILFHLKKIRSKLSAEIIVPKEMSGELVWNEKHIPLKHGQHTYILK
modifications: Zobellia galactanivorans
- Peak75 (PAR %) [1]: 2.120%
- ratio PP/QS-21 [2]: 0.17
- QS-17 (PAR %) [3]: 4.916%
- Peak57 (PAR %) [4]: 2.889%

B3: 1016 (protein, listed as Olsenella profusa)
chain: MRATNLTVACLTNPLGIDVRCPELAWIDEDGLSQSAYQVECKDGAGATLWDTGKVASASMRIAWPGAALASRERVTWRVRLWDDGDACGPWSEFASIEEGLLSADDWCARWISGNYDVPTPRAGALGNFRQMVAAMRPASPDQVVTEPILEGRYPVDCFCRAFVVGKAPVRARLYITACGLYEARIDGEKVGDLCMAPGHTDYRKRVQYQTYDVTAALATGAHELTVQLADGWYRGSCGAWGLLNQYGTQTKLLAQLEVTYADGHVDCVATDTDWQWSGDGPILFADNKDGEMVDATRAPSYAGHARDARHDVAPTASNNVPITMHERFSPAPALAPNGRLLFDLGQNIAGWVELDFDAHESQHVLLRCGEMLDADGNLTLKNIQCSREGFATPLQQVEYVCREGHNHYRTTFCVFGFRYVEVETNVQLGEGSLTAIALYSDMRQTGSFECSNELLNRFFESTVWSTKGNSLDVPTDCPTRERHGWSGDAQIFFETLSYLFDCRSFERKWLHDLFDWQKRDGRLPQVAPAGGVDSYMRFLDGSVGWADAGILIPYRYWRHYGDASVLAELYDGMRRYAEFMIRRCGRRGPFSKRVGIHGEAKKYLVNMGQCYGEWAEPADVHKMDWKDTVAPHPEVATAYTDYVLGCMAQIARELGHEEDEARYRQYSEGCRLAYQELSRLPEFSLDTDRQARLVRPLAFGLLDPQQTAYARKRLVKACESYGWRLGTGFLSTPLILDVLAKYDLDAAYRLLENEEMPGWLFMPKMGATTVWESWEGTQAQGGIASLNHYSKGAVCAWLFRVMCGIAPDGERHVTVAPRPGGRFAYAKAGYESPCGFVGCGWQRVEDGWRFAVEVPANCAATVVLPDGSTREVGAGVHEFECVARAAREG
- Peak75 (PAR %) [1]: 2.498%
- ratio PP/QS-21 [2]: 0.18
- QS-17 (PAR %) [3]: 4.872%
- Peak57 (PAR %) [4]: 3.326%

B4: 1042 (protein, listed as Streptomyces scabiei)
chain: MNPTAPAEQTPTDITVSVTGLRTADDSGLVATAHAMPRLSWSLTGTRPGILQHAYEIQVSGAPSFDDTTSSGQVESGTVTDHPWPAQPLSSRETRHWRVRVRTDRGWTRWSDPARVEGALLDAVDWAARPVHVPSDRGRPSPGPVPLLRREFHLPAEPVSARLYVTSLGVHRTTLNGRPVSADLLEPGWTSYPDRLLYATYDVTGLLRPGPNALAAAVGDGWFRGHLTWHKNRDVYGDTTGLLAQLEVDLTDGTRVTVITDGRWKGGYGDLLSADLYDGCERDLRAEPHGWQLPGFADDGWEPVAVLPLPEGLGQRAHPPVRVVRTVRPRLRTLADGTIAVDAGENVTGRLRIRADGRPGGTVTVRHAEVLDGDGRLLTSILRGARATDRYTLAEGPADLTPEFTFHGFRYAEIDASPDVSVEAVEVEVVAGDLRRIGEFHCSDERVNTLYANVVRSQRGNFLAVPTDCPQRDERLGWTGDIMAFAPTACATFDSASFLDSRLTDLRIQQRPDGAVPMVVPDVPLGELPPAELPFAGAAAGWGDAATVVPAALFEAYGQPHLLERHYTAMRAWVEFTVAHLDEDGTWSGNAQLGDWLDPAAPPENPAAATTDSGYVATAFVAHSARLLADAARELGFPEDADRYTALHRRTAEAAWRKWGDHARTTQTGCALALEFGIAPAGERAEVGKALASLVRANGGRIATGFLGTPFVLPALGDTGHVAEAYELLLNPECPGWLHQVSRGATTMWERWDAIGPDGTVDVENAGTMLSFNHYAYGAVASWLYRSVAGLRPASPGYRTLDIAPRPGATLTSAEAAVDTPYGTASVAWSIGDGSLTVRAVLPPGTTGRFSAPEGWTCTEPVDALASGSHVLSLRPLTRP
- Peak75 (PAR %) [1]: 2.599%
- ratio PP/QS-21 [2]: 0.18
- QS-17 (PAR %) [3]: 4.871%
- Peak57 (PAR %) [4]: 3.383%

B5: 1062 (protein, listed as Streptosporangium roseum)
chain: MIGNAVHCAPAQTSPSRSDPAPPRLTPYGLRCEHRQTPLGVGEPRPLLSWRLASARAGDDPVAYELEVGDWSSGRVEDPAAIGAVYGGPPLLPRTRYAWRVTVWARDGAEGSAESWFETGQDVWQASWIAHDPAAVAHMDPPTEGDQALSHHGLLPCPQLRTSFESTAGVTRARLLISAKGLYEARVNGHRAGDAELAPGWTDYRRRIQYQVHDVTPFLLDGENVLAATVADGWWSGFTGFDPRRPGYHYGRFPELIAELHLTFEDGSTRVVATGEGWRTGHGRVRYGDLLKGECHDARAETPGWDLPGFDDSSWRPAVVTGDDHSLLVASRDEPVRALGELLPVSSVLVRPGVHLVDFGQNIAGRVRLAVRDQEPGRRVTVRHGETLDGEDRLHTANLRTADATDVLITAGGAEEVFEPRFTYHGFRYAEVSGIDRLDDIRAIVLHSDTPWTGTFECSDPEINRLHDNIGWGQRGNFVSVPTDCPQRDERLGWLADAQVFLPTACFNADVSGFFSKWMRDVVDAQSPEGGFSNVAPLLSGVADEGAPGWADAGVLVPWHLYRVYGDDRFLDVDSMVRWVDFVARHNPDLIWRHRTGPHFADWLAPGPATPREVLATAFFHRSAALTAEAARVRGLYGEAERMGALADRVRAAFAAAFVGDGGLVEGDTQTGYLLALAFGLLTPEQGRGAAARLAALVEESGPLTGFLGVNLLCPVLSAHGRDDLAHALLRRTDPPSWLYQVRHGATTVWERWDGVGAASMNSFNHYAFGSIGEWLYSGVAGIAQAPGSVAFREVVIRPLPGDLSRAGASYESARGLISVSWHNDAEGFRLQTRIPPGATATVHLPGGETRRVTSGDHIFELVRGEKA
- Peak75 (PAR %) [1]: 2.410%
- ratio PP/QS-21 [2]: 0.18
- QS-17 (PAR %) [3]: 4.916%
- Peak57 (PAR %) [4]: 2.941%

B6: 1008 (protein, listed as Pedobacter heparinus)
chain: MNLKTTGIVLVLSTIVCFPCIAQKNLEQSFKVTPDTIQTSVYWYWMSDNISKDGVVKDLYAMKSAGINRAFIGNIGYETTPYGKVKLFSAEWWDIMHTALKTATNLNIEIGVFNSPGWSQSGGPWVKPAQAMRYLASTKANFVGPKQLNVQLEKPKGYFQDVRVIAYKTPKAYGNSIAVHKPKLSSSISVQNINNLIDGSENTTVDIPATESITIDLETSSSFTARSLVVYPAHKGLNVNVELQVKKNKEYVSVKTFSVNRTNSNLHVGFKPYGPVAVSIPPTIGHSFRLVFGKSGGFGLAEVVLSQTPVVESYTEKTLAKMFQSPLPYWNEYQWPDQPLIDDLSLVIDPKTVIDITTFMNAEGQLKWDLPAGNWTIMRTGMLPTGVKNGPASPEGTGLEIDKMSKEHVANHFDAFMGELLRRIPAADRKTWKVVVQDSYETGGQNWTDDMIEKFKASFHYDPLPYLPVIQGEVVGDQNQSDRFLWDLRRFIADRVAYDYVGGLRDISHKHGLTTWLENYGHWGFPGEFLQYGGQSDEIGGEFWSEGELGNIENRAASSAAHIYGKTKVSAESFTAGDKPYQRYPYIMKQRGDRFFTEGINNTLLHLFIQQPSEDKVPGINANFGNEFNRHNTWFSYIDLFTGYLKRTNFMLQQGKYVADVAYFIGEDAPKMTGITDPALPAGYSFDYINAEVIQTRMKVKDGRMVLPDGMSYKLLVLPKLKTMRPELLAKIKELVAQGANILGPAPERSPSLANFPEADAKVKRMVTELWGNVNGTTIKTRKLGKGTIMSGMDMKLALNALNILPDFKTNTTDPVLFIHRSGPQAELYFISNQSEKQITFSPTFRSVDMQPELWDPVTGKTRVLSELSANGSSTTIPLTLEPLQSIFVVFRNPLVASPIRAINFPEAKTIEEINGPWKVTFNSQMRGPEKPVMFDTLIDWTKRPEESIKYYAGTAVYSNSFRATKPVKGERIYLYFSEVSVMAKVKVNGTDVGGMWTAPWRVDITDAIISGVNTLDISVVNNWVNRLVGDSKLPEAKRKTWTNNNPYTPDSKLVPSGLTGKVVVKTIKY
- Peak75 (PAR %) [1]: 2.538%
- ratio PP/QS-21 [2]: 0.17
- QS-17 (PAR %) [3]: 4.834%
- Peak57 (PAR %) [4]: 2.658%
